Source: patent US20260258115A1

B1: ADI-41275 (antibody, V domains shown)
VH: EVQLVESGGGLVKPGGSLRLSCAASGFMFSTYSMNWVRQAPGKGLEWVSFITGSSSDKYYAHSVKGRFTISRDNAKRTLYLQLNSLRAEDTAVYYCARFRGLYCDGDCSSRGNTYYNYYGMDVWGQGTTVTVSS
VL: EIVMTQSPLSLSVIPGEPASISCRSSKSLLHSNGYTYLDWYLQKPGQSPQLLIHLGSNRASGVPDRFSGSGSGTDFTLKISRVEAEDVGVFYCMQALQAPPTFGPGTKVEIK
B2: ADI-41285 (antibody, V domains shown)
VH: QVQLVQSGAEVKKPGSSVKVSCKASGGTFSYYAISWVRQAPGQGLEWMGGIIPILGTVKNAQKFQGRVTITADKITSIAYMELSSLRHEDTAVYYCARDYYDSSGYYYNGYGMDVWGQGTTVTVSS
VL: QSVLIQPPSASGTPGQRVTISCSGSSSNIGSNYVYWYQQLPGTAPKLLIYRNDQRPSGVPDRFSGSKSGTSASLAISGLRSGDEADYYCAAWDDSLGGPIWVFGGGTKLTVL
B3: ADI-41273 (antibody, V domains shown)
VH: EVQLLESGGDLVRPGGSLRLSCTASGFSFSSSEMNWVRQAPGKGLEWVASINSGGDDIYYADSVKGRFTISRDNAKNSLSLQMDSLRAEDTALYYCARSRSGYSSGWSRFFGNWGQGTLVTVSS
VL: QSALTQPRSVSGSPGQSVTISCTGTISDIGAYNYVSWYQQHPGKAPKVMIYDVSKRPSGVPDRFSGSKSGFTASLTISGLQAEDEADYYCCSYAGRWVFGGGTKLTVL
B4: ADI-41270 (antibody, V domains shown)
VH: EVQLVESGGGVVQPGQSLRLSCAASGFTFSSFAMHWVRQAPGKGLEWVAVISYDGSNKYYADSVKGRFTISRDNSKNTLSLQVNSLRAEDTAVYYCARVSAEGSMGRFSDFNYWGLGTLVTVSS
VL: QSALTQPASVSGSPGQSITISCTGTSSDVGSYNLVSWYQQHPGKAPKLMIYEVRKRPSGVSNRFSGSKSGNTASLTISGLQAEDEADYYCCSYAGSDTYVFGTGTKLTVL
B5: ADI-41282 (antibody, V domains shown)
VH: QVQLVQSGGGVVQPGRSLRLSCAASGFMFTIYSMHWVRQAPGKGLEWVAVISNDGVNKYYSDSVKGRFTISRDNSKNTLYLQMNNLRAEDTAVYYCASDIVVLVTATDYWGQGTLVTVSS
VL: ETTLTQSPVTLSLSPGERATLSCRTSQSFSSPLLAWYQQKPGQAPRLLIYGASNRATGIPDRFSGSGSGTDFTLTISRLEPVDFAVYYCQQYGSSPYTFGQGTKLEIK
B6: ADI-41281 (antibody, V domains shown)
VH: QVQLVQSGAEVKKPGASVKVSCKASGYSFTNHGIHWVRQAPGQRLEWMGWINVANGFTAYSQNLQGRVTFTRDTSASTAYLELTSLRSEDTAVYHCARDESYCSAGYCYLYFDYWGQGTTVTVSS
VL: DIQVTQSPSSLSASVGDRVTITCRASQNIITYVNWYQQKPGKAPELLIFGASSVQSGVPSRFSGSGSGTDFTLTISSLRPDDFATYYCQQSYSNPRTFGGGTKVEIK
B7: ADI-41265 (antibody, V domains shown)
VH: EVQLVQSGAEVKKPGESLTISCKDSGYSFTSYWIGWVRQVPGKGLEWMGIVYPGDSRYSPSFQGHVTMSADKSINTAYLQWSTLKASDTAMYYCAKVVTYGSAIRWFESWGQGTLVTVSS
VL: QSVLTQPPSVSAAPGQKVSISCSGSSSNIGNNFVSWYQQVPGTAPKLLIIDNNKRPSGIPDRFSGSKSGTSATLGITGLQTGDEADYYCGTWDSRLSAEVFGGGTKLTVL
B8: ADI-41283 (antibody, V domains shown)
VH: QVTLKESGPTLVKPTQTLTLTCTFSGFSLSTFGVAVGWIRQPPGKALEWLALIYWDDDKRYSPSLKSRLTITKDISKNQVVLTMTNMDPVDTATYYCAHRLRSLTARGVFDIWGQGTTVTVSS
VL: DIRLTQSPSSLSASVGDRVTITCRASQSINNFLNWYQQRPGKAPTLLIYSASSLQSGVPSRFSGSGSGTDFTLTISSLQPEDFATYFCQQTDSFPWTFGQGTKVEIK
B9: ADI-41284 (antibody, V domains shown)
VH: QVQLVQSGGGLVKPGGSLRLSCAASGFTFSNAWMSWVRQAPGKGLEWVGRIKSEVDGGTADYAANVKGRLTISRDDSKNMMYLQMNSLKTEDTAVYYCTTDPGVGWIFGEVKLFRTDPEYWGQGTLVTVSS
VL: QSVLTQPPSVSAAPGQKVTISCSGSSSNIGNHYVSWYQQLPGTSPKLLIYDNNKRPSGIPDRFSGSKSGTSATLGITGLQPGDEADYYCGTWDSSLSAVRVFGGGTKVTVL
B10: ADI-41277 (antibody, V domains shown)
VH: QVQLQESGPGLVKPSGTLSLTCAVSGGSITGRNWWSWVRQPPGKELERIGEIYHGGSTEYNPSLKGRVTISVDKSKNQFSLRLNSVTAADTAVYYCARVAHYDSNGYYIGYFDLWGRGTLVTVSS
VL: EIVLTQSPPSLSASVGDRVTITCRASQSISIYLNWYQQKPGKAPKLLIFAASSLQSGVPLRFSGSGSGTDFTLTISSLQPEDFATYYCHQSYSAPWTFGQGTKVDIK
B11: ADI-41263 (antibody, V domains shown)
VH: QVQLVQSGAEVKKPGASVKVYCKASGYTFTSHYIHWVRQAPGQGLEWMGRMNPSGGSPMYAQKFQERVTMTRDTSTSTAYMELRSLRSEDTAVYYCAMAKFYSFDYWGQGTLVTVSS
VL: QSVLTQPHSVSESPGKTVTISCTRSSGSIASYFVHWYQQRPGSAPTIVIYEDNQRPSGVPDRFSGSIDSSSNSASLTISGLKTEDEADYYCQSYDSSNWVFGGGTKLTVL
B12: ADI-41267 (antibody, V domains shown)
VH: QVQLVQSGPGLVKPSGTLSLTCAVSGGSISTTHWWSWVRQPPGKGLEWIGEIYHSGSTNYNPSLKSRVTISVDKSRSQFSLKLTSVTAADTAVYYCARGDPLCSGGICYSGYFDYWGQGTLVTVSS
VL: SYVLTQPPSVSVSPGQTATITCSGDKLGDQYACWYQQKSGQSPVLVIYRDNKRPSGIPERFSGSNSGNTATLTISETQAMDEADYYCQAWGSSSVVFGGGTKVTVL
B13: ADI-41280 (antibody, V domains shown)
VH: QVQLVESGPGLVKPSETLALTCTVSGGSLSTYYWSWIRQPPGKGLEWIGYIYYSGTTYYNPSLKSRVTISEDRSKNQFSLKLTSVTAADTAVYYCARHGPKTEFWSAQYYLELWGRGTLVTVSS
VL: EIVLTQSPGTLSLSPGERATLSCRASQSVSSDYLAWYQQKPGQAPSLLIYGVSTRATGIPDRISGSGSGTDFTLTISRLEPEDFAVYYCHQYGTSPWTFGQGTKVEIK
B14: ADI-41279 (antibody, V domains shown)
VH: QVQLVQSGAEVKKAGETLKISCRGPAHTFTSFWIGWVRQTPGKGLEWMGNIYPGDTDTTYSPSFRGQVTISADKSISTAYLQWNSLKASDTAIYYCATRVRHGYSSSGSFESWGQGTMVTVSS
VL: QSVVTQPPSVSGAPGQRITISCTGSNSNTGAGYDVHWYQQLPGAAPKLLIFANNNRPSGVPDRFSGSKSGTSASLAITGLQAEDEADYYCQSYDNSLSAYVFGTGTKLTVL
B15: ADI-41278 (antibody, V domains shown)
VH: EVQLVESGPALVKPTQTLTLTCTFSGFSLSTKRMGVSWIRQPPGKALEWLARIDWDDDKFYSTSLKTRLTISKDTSKNQVVLTLANMDPVDTATYFCARTTVYASGGYYLYYLDYWGQGTLVTVSS
VL: DIVMTQTPSSLSASVGDRVTLTCRASQRIASYVNWYHQKPGKAPNLLIYAASNLQSGVPSRFSGSGSGTDFTLTISSLQPEDFATYYCQQSYSTPLTFGQGTKLEIK

Each binder was assayed against RSV prefusion F (preF, DS-Cav1) (Respiratory syncytial virus) (assay: BLI, IgG on sensor, 100 nM antigen).
Work on B1 yielded a Kd of 5.74 nM.
Binder B2 has a Kd of 0.511 nM.
B3 showed a Kd of 3.06 nM.
With B4 the Kd was 4.92 nM.
For B5, the Kd was 3.25 nM.
In the case of B6, the Kd is reported as 6.7 nM.
In the case of B7, the Kd is reported as 15 nM.
B8 was tested, and the Kd was 27.4 nM.
Work on B9 yielded a Kd of 3.06 nM.
B10 gave a Kd of 3.6 nM.
Work on B11 yielded a Kd of 2.9 nM.
B12 showed a Kd of 10.7 nM.
Work on B13 yielded a Kd of 3.62 nM.
In the case of B14, the Kd is reported as 50.4 nM.
Binder B15 has a Kd of 1.28 nM.

What follows are binders tested against RSV postfusion F (postF, F deltaFP) (Respiratory syncytial virus) (assay: BLI, IgG on sensor, 100 nM antigen).
Binder B1 has a Kd of 1.33 nM.
B2 gave a Kd of 0.412 nM.
Work on B3 yielded a Kd of 1.17 nM.
With B4 the Kd was 0.617 nM.
With B5 the Kd was 1.25 nM.
B6 was tested, and the Kd was 1.58 nM.
B7 gave a Kd of 3.08 nM.
B8 gave a Kd of 7.95 nM.
B9 was tested, and the Kd was 0.547 nM.
B10 showed a Kd of 0.78 nM.
In the case of B11, the Kd is reported as 0.345 nM.
With B12 the Kd was 10.9 nM.
With B13 the Kd was 0.483 nM.
B14 gave a Kd of 47.8 nM.
Binder B15 has a Kd of 0.482 nM.
